# Assay results from paper PMC8523169, “Competitive binding of MatP and topoisomerase IV to the MukB hinge domain” (eLife, 2021).
# Read-outs that look alike come from different tables or passages of the source.
# T1: MukB long hinge (LH; amino acid residues 568–863) (E. coli, UniProt P22523 568-863)
# T1 construct: MukB, E. coli, residues 568-863: dimeric globular hinge domain and 20% of the coiled-coil region; also called LH (MBP cleaved); LH2; source: NEBExpress cells (pMAL-c5X), purified (amylose, Factor Xa cleavage, HiTrap Q XL, SEC); not shown: MBP, N-terminal, cleaved
# T1 sequence (looked up): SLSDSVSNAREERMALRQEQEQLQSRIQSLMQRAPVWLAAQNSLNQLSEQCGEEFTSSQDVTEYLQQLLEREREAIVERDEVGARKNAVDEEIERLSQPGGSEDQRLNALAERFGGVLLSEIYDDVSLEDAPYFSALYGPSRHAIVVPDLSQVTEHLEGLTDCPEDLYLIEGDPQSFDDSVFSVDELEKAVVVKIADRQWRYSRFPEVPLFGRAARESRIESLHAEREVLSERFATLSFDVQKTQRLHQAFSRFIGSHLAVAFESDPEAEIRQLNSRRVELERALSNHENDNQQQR
# T2: full-length MukB (wild type) (E. coli, UniProt P22523 1-1486)
# T2 construct: MukB, E. coli, full length; also called WT MukB; unlabeled MukB; source: purified as described (Zawadzka et al., 2018)
# T2 sequence (looked up): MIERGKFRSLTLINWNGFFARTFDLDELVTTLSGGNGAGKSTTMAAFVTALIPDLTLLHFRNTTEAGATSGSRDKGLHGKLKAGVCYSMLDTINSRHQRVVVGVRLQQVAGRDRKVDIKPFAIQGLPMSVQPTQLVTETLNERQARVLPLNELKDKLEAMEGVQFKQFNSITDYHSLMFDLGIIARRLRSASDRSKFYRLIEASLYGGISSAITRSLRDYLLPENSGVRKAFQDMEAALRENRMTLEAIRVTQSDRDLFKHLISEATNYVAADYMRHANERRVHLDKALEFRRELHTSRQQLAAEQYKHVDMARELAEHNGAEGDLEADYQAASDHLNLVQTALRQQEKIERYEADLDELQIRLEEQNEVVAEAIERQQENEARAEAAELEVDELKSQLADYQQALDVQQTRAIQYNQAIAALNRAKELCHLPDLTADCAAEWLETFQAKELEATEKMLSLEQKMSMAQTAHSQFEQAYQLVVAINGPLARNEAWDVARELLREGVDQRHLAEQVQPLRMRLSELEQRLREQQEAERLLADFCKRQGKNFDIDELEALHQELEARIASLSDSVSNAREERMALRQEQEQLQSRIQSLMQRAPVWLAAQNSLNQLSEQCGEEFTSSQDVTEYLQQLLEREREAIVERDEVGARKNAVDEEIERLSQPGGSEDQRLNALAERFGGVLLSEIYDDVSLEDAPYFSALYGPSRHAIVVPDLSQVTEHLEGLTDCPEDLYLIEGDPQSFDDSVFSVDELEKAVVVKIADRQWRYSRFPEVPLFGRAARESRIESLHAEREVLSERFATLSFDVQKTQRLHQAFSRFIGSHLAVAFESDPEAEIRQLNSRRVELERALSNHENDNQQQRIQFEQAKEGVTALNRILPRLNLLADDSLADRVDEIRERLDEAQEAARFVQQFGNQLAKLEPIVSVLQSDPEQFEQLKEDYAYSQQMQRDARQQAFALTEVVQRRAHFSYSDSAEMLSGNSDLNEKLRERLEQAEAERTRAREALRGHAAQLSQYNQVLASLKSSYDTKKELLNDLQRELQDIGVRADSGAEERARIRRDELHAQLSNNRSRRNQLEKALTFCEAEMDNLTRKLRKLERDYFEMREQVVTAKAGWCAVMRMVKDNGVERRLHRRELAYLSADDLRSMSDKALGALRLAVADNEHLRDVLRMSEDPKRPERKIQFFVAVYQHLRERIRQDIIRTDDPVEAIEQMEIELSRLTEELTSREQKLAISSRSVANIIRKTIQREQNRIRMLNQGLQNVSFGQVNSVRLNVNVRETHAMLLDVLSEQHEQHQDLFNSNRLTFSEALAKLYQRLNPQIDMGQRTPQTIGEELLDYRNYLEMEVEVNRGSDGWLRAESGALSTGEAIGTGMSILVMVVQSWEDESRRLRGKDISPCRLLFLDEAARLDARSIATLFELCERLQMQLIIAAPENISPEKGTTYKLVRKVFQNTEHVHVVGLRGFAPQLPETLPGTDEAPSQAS
# T3: full-length MukB^KKK (D697K D745K E753K) (E. coli, UniProt P22523 1-1486, D697K | D745K | E753K)
# T3 construct: MukB, E. coli, full length, with three hinge substitutions
# T3 sequence (looked up): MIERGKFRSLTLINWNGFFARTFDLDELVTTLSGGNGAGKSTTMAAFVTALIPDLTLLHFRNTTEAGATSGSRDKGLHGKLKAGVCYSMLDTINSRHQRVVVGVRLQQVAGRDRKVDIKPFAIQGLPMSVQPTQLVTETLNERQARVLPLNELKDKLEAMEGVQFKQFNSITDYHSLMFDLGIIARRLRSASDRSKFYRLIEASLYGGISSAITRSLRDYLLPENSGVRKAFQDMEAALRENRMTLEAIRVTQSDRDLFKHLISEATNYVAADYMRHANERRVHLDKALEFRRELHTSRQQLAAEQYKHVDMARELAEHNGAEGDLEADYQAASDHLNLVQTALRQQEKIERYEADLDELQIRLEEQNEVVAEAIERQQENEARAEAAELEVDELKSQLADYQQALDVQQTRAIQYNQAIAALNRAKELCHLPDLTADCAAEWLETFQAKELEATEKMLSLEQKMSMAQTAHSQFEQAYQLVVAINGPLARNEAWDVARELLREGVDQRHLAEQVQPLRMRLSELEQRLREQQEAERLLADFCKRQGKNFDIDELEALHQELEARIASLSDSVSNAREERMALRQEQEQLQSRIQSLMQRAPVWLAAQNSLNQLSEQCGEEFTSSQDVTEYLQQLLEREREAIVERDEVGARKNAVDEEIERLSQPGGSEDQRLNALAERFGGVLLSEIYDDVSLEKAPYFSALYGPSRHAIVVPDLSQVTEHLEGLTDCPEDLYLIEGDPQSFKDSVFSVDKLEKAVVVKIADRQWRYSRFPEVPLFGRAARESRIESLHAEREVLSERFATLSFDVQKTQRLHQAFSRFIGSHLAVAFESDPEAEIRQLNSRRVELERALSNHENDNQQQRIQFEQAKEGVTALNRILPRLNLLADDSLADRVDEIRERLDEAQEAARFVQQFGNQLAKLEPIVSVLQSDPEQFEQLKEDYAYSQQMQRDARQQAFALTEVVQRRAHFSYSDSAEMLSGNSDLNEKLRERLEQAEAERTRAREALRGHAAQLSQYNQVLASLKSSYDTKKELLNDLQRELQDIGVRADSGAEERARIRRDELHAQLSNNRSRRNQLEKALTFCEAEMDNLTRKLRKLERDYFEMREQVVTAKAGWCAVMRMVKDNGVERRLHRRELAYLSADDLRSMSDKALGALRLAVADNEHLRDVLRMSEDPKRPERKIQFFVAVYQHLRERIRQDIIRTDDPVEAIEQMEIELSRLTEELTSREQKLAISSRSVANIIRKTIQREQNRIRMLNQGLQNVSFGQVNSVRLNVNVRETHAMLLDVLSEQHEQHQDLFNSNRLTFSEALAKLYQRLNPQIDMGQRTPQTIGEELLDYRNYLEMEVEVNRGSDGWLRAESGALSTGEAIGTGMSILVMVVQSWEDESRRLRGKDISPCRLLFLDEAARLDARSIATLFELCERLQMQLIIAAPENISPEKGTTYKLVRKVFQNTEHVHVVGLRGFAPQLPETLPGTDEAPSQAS
# Experiments:
# [1] = target: T1, MukB long hinge (LH; amino acid …); assay: native MS; proteins buffer exchanged into 200 mM ammonium acetate pH 8.0, alone or mixed in different ratios (two or three components, with or without 50 bp DNA), 10 min on ice; conditions: both partners purified
# [2] = target: T1, MukB long hinge (LH; amino acid …); assay: ITC; 100 µM MatP titrated into 10 µM LH at 25 °C; one-site model; three repeats; conditions: both partners purified
# [3] = target: the molecule itself; assay: native MS; proteins buffer exchanged into 200 mM ammonium acetate pH 8.0, alone or mixed in different ratios (two or three components, with or without 50 bp DNA), 10 min on ice
# [4] = target: the molecule itself; assay: as above; remark: listed apart in the source
# [5] = target: T1, MukB long hinge (LH; amino acid …); assay: native gel or EMSA; native PAGE; MatP or variants (7 µM) mixed with LH and/or 50 bp DNA at 1:1(:1), 30 min on ice; Coomassie and ethidium bromide staining; conditions: both partners purified
# [6] = target: T2, full-length MukB (wild type); assay: fluorescence correlation spectroscopy (FCS); competition: MatP-Cy3B fixed at 1 nM, MukB at 400 nM; ParC variants at 10-fold, unlabeled MatP at 50-fold, DNA at 2.5-fold molar excess; conditions: both partners purified
# [7] = target: T3, full-length MukB^KKK (D697K D745K E753K); assay: fluorescence correlation spectroscopy (FCS); titration at constant 1 nM MatP-Cy3B; 20 mM Tris-HCl pH 7.5, 50 mM NaCl, 0.3 mg/mL BSA, 2 mM DTT, 0.05% Tween-20; 22 °C; fitted to the Hill equation; conditions: both partners purified
# [8] = target: T2, full-length MukB (wild type); assay: as above; conditions: both partners purified
binder,measurement,setting,value
"MatPΔ18C (1–132), C-terminal 6xHis-tag (domain or fragment, E. coli, UniProt P0A8N0 1-132, looked up, MatP, E. coli, residues 1-132 (deletion of the 18 C-terminal residues); also called MatPΔ18C-His; MatP2; source: overexpressed, purified as previously published (Nolivos et al., 2016) with an added SEC step; not shown: His6, C-terminal, kept) MKYQQLENLESGWKWKYLVKKHREGELITRYIEASAAQEAVDVLLSLENEPVLVNGWIDKHMNPELVNRMKQTIRARRKRHFNAEHQHTRKKSIDLEFIVWQRLAGLAQRRGKTLSETIVQLIEDAENKEKY",stoichiometry N,[1],1 MatP dimer per LH dimer
same,Kd,[2],590 nM
same,dH,[2],-16.8 kcal/mol
same,stoichiometry N,[2],0.96
same,stoichiometry N,[3],2
"MatP^4A (K71A, Q72A, R75A, and R77A) (domain or fragment, E. coli, UniProt P0A8N0 1-132, looked up, MatP, E. coli, residues 1-132 (MatPΔ18C) with four substitutions; source: site-directed mutagenesis, purified using the same protocol as MatP) MKYQQLENLESGWKWKYLVKKHREGELITRYIEASAAQEAVDVLLSLENEPVLVNGWIDKHMNPELVNRMAATIAAARKRHFNAEHQHTRKKSIDLEFIVWQRLAGLAQRRGKTLSETIVQLIEDAENKEKY",stoichiometry N,[4],2
same,binding result,[5],binds
"full-length ParC, N-terminal 6xHis-tag (enzyme, E. coli, UniProt P0AFI2 1-752, looked up, ParC subunit of topoisomerase IV, E. coli, full length; also called His-ParC; ParC2; source: overexpressed, purified as previously published (Nolivos et al., 2016) with an added SEC step; not shown: His6, N-terminal, kept) MSDMAERLALHEFTENAYLNYSMYVIMDRALPFIGDGLKPVQRRIVYAMSELGLNASAKFKKSARTVGDVLGKYHPHGDSACYEAMVLMAQPFSYRYPLVDGQGNWGAPDDPKSFAAMRYTESRLSKYSELLLSELGQGTADWVPNFDGTLQEPKMLPARLPNILLNGTTGIAVGMATDIPPHNLREVAQAAIALIDQPKTTLDQLLDIVQGPDYPTEAEIITSRAEIRKIYENGRGSVRMRAVWKKEDGAVVISALPHQVSGARVLEQIAAQMRNKKLPMVDDLRDESDHENPTRLVIVPRSNRVDMDQVMNHLFATTDLEKSYRINLNMIGLDGRPAVKNLLEILSEWLVFRRDTVRRRLNYRLEKVLKRLHILEGLLVAFLNIDEVIEIIRNEDEPKPALMSRFGLTETQAEAILELKLRHLAKLEEMKIRGEQSELEKERDQLQGILASERKMNNLLKKELQADAQAYGDDRRSPLQEREEAKAMSEHDMLPSEPVTIVLSQMGWVRSAKGHDIDAPGLNYKAGDSFKAAVKGKSNQPVVFVDSTGRSYAIDPITLPSARGQGEPLTGKLTLPPGATVDHMLMESDDQKLLMASDAGYGFVCTFNDLVARNRAGKALITLPENAHVMPPVVIEDASDMLLAITQAGRMLMFPVSDLPQLSKGKGNKIINIPSAEAARGEDGLAQLYVLPPQSTLTIHVGKRKIKLRPEELQKVTGERGRRGTLMRGLQRIDRVEIDSPRRASSGDSEE",fold decrease in MatP-Cy3B binding to MukB at 10-fold excess of competitor,[6],3 fold
same,stoichiometry N,[3],2
"Cy3B-labeled MatP-Cys-His (domain or fragment, E. coli, Cy3B maleimide on the single cysteine engineered into the C-terminal linker, MatP, E. coli, residues 1-132 (MatPΔ18C); C-terminal linker between MatP and its 6xHis-tag with the engineered cysteine; Labeling efficiency 89%; also called MatP-Cy3B; Cy3B-MatP; source: purified as MatP, labeled with Cy3B maleimide, excess dye removed by SEC) MKYQQLENLESGWKWKYLVKKHREGELITRYIEASAAQEAVDVLLSLENEPVLVNGWIDKHMNPELVNRMKQTIRARRKRHFNAEHQHTRKKSIDLEFIVWQRLAGLAQRRGKTLSETIVQLIEDAENKEKYSDPNSSSVDKLCAAALE",Kd,[7],~1600 nM
same,Kd,[8],~250 nM
